This is an account of results in publication PMC3420917, “A Combinatorial Amino Acid Code for RNA Recognition by Pentatricopeptide Repeat Proteins” (PLoS Genetics, 2012).

For series [1], the target named is T1, PPR10 NN variant (maize, UniProt B8Y6I0 96-786, D314N).
T1 sequence: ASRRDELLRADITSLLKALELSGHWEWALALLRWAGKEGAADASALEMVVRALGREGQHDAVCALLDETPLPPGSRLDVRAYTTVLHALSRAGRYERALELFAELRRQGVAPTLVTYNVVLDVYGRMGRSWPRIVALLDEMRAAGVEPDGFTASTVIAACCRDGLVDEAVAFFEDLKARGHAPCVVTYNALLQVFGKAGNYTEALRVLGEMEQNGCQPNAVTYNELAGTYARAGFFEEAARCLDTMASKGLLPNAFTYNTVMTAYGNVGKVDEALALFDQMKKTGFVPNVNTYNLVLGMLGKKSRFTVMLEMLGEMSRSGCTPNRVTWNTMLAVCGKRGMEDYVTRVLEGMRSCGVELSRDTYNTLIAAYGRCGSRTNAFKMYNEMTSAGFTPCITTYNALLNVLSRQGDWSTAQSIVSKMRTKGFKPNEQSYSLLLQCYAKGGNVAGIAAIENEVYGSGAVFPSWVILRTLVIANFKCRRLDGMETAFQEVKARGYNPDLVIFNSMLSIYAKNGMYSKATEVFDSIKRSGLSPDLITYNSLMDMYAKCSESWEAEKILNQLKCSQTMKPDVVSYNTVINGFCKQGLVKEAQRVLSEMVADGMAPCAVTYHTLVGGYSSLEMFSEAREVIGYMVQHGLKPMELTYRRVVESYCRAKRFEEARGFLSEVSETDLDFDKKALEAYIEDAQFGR
Description: EMSA; affinity similar to CC RNA; EMSA: radiolabeled RNA 15 pM, protein 0, 5, 10, 20 nM; binding buffer and temperature by reference [12]; protein stock in 400 mM NaCl, 50 mM Tris-HCl pH 7.5, 5. Particulars: protein: recombinant; tags: MBP fusion removed by TEV cleavage; label: radiolabeled; single-stranded.

Series [2] addresses T2, PPR10 ND variant (maize, UniProt B8Y6I0 96-786, N349D).
T2 sequence: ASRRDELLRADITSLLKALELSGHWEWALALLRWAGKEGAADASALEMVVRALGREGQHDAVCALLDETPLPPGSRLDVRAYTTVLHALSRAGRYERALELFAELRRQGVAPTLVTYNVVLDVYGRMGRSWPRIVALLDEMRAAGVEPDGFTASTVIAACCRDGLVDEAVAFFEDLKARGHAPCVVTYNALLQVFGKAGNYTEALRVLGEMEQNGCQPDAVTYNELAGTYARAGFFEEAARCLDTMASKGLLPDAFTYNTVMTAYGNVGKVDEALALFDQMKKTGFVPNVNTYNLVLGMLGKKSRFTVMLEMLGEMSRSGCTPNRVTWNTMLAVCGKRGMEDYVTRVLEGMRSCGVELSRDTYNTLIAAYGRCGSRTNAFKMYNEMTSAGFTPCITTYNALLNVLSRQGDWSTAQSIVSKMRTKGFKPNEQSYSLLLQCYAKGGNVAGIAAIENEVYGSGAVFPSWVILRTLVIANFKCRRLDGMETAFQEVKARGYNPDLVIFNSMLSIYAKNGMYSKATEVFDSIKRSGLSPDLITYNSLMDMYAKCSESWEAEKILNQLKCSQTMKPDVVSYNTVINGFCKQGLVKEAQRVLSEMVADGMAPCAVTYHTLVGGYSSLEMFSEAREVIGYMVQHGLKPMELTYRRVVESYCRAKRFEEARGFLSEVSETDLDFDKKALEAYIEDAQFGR
The series can be described thus: EMSA; EMSA: radiolabeled RNA 15 pM, protein 0, 5, 10, 20 nM; binding buffer and temperature by reference [12]; protein stock in 400 mM NaCl, 50 mM Tris-HCl pH 7.5, 5. As to conditions: protein: recombinant; tags: MBP fusion removed by TEV cleavage; label: radiolabeled; single-stranded.

Series [3] has as its target T3, PPR10 NS variant (maize, UniProt B8Y6I0 96-786, D314S;N349S).
T3 sequence: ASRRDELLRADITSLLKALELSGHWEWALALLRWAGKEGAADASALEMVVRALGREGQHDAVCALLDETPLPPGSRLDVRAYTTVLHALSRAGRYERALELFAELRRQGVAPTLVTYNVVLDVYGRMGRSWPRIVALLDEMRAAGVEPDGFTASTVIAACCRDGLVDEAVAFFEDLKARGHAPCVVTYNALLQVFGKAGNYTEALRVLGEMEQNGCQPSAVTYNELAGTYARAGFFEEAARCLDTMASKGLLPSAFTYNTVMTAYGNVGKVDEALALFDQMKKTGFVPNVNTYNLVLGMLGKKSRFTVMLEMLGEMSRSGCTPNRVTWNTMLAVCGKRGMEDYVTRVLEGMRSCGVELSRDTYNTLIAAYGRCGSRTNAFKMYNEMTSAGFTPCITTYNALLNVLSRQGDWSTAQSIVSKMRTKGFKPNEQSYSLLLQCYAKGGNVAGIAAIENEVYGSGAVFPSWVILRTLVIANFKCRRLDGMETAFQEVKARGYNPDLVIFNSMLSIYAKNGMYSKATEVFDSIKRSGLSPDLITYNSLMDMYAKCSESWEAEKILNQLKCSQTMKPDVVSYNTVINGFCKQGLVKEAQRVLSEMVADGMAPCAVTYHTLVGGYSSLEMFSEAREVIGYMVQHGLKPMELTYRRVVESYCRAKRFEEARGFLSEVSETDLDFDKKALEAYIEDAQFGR
Described as above. Particulars: protein: recombinant; tags: MBP fusion removed by TEV cleavage; label: radiolabeled; single-stranded.

Series [4] concerns the target T1, PPR10 NN variant. Description: EMSA; affinity similar to UU RNA; EMSA: radiolabeled RNA 15 pM, protein 0, 5, 10, 20 nM; binding buffer and temperature by reference [12]; protein stock in 400 mM NaCl, 50 mM Tris-HCl pH 7.5, 5. As to conditions: protein: recombinant; tags: MBP fusion removed by TEV cleavage; label: radiolabeled; single-stranded.
For series [5], the target named is T4, rPPR10 wild-type (maize, UniProt B8Y6I0 96-786).
T4 sequence: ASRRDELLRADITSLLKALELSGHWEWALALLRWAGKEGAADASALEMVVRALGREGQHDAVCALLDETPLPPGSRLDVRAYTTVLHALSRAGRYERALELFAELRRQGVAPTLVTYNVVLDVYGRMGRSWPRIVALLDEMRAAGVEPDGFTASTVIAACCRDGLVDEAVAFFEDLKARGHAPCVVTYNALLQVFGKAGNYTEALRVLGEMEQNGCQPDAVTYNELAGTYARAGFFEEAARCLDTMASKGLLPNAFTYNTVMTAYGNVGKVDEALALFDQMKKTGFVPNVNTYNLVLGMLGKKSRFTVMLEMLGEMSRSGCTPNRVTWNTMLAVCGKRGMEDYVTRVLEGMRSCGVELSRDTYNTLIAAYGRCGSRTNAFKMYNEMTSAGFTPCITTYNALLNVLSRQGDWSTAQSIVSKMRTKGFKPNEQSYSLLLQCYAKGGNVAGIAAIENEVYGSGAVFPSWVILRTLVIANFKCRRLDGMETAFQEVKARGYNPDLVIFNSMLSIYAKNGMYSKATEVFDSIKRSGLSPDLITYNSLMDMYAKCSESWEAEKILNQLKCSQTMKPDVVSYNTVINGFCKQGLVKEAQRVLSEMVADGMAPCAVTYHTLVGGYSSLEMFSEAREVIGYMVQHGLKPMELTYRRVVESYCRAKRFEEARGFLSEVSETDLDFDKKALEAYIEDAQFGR
Description: SV-AUC; 3 uM protein, 1.5 or 3 uM RNA; 1:1 monomer complex; EMSA: radiolabeled RNA 15 pM, protein 0, 5, 10, 20 nM; binding buffer and temperature by reference [12]; protein stock in 400 mM NaCl, 50 mM Tris-HCl pH 7.5, 5. Particulars: protein: recombinant; tags: MBP fusion removed by TEV cleavage; single-stranded.

As to GUAUUCUUAACCAUUUC (ssRNA) [UU RNA], the binding result in series [1] is recorded as “binds”. For the same molecule, the Kd in series [2] was roughly 3 nM; in series [3] it was 20 nM.

As for GUACCCUUAACCAUUUC (ssRNA) [CC RNA], in series [4], the binding result is “binds”. For the same molecule, the Kd is 17 nM in series [2] and 9 nM in series [3].

In the case of GUAUCCUUAACCAUUUC (ssRNA) [PPR10 17-nt minimal RNA ligand], the binding result in series [5] is recorded as “binds”.
